Target: L-plastin EF construct (EF-hand headpiece domain, H5 region omitted) (human)
Test: SPR; EF construct immobilised by its sole cysteine (Cys42) on a CM5 chip by thiol coupling; peptides injected; BIAcore X100; 10 mM Tris-HCl pH 7.5, 150 mM KCl, 1 mM CaCl2, 0.005% Tween-20; 30 uL/min, contact 1 min, 25 °C

With Ac-STDVAKTFRKAINKKEGI-NH2 [synthetic H5 peptide representing the H5 region of LPL (residues 83-100)] the Kd was 3.52 µM.

— PMC5286426, “The Calcium-Dependent Switch Helix of L-Plastin Regulates Actin Bundling” (Scientific Reports, 2017)
